Read-outs that look alike come from different tables or passages of the source.
Legend:
[1] = target: T1, HER2 (form used in the assay not stated) (human, UniProt P04626 23-652, limits assumed); test: method not stated
T1 construct: also called ErbB2

[2] = target: T1, HER2 (form used in the assay not stated); test: method not stated; remark: listed apart in the source
[3] = target: T2, HER2 on the surface of HER2 overexpressing cancer cells (BT474) (human, UniProt P04626 23-1255); test: flow cytometry on BT474 cells, Alexa488-labelled agent
T2 construct: whole, on cells; also called ErbB2; HER2/Neu

[4] = target: T2, HER2 on the surface of HER2 …; test: flow cytometry, dissociation from BT474 cells in the presence of a competing DARPin (FIG. 18A)
Procedure: Corresponding to 100 μl cell suspension, samples were washed twice in 1 ml PBS (0.2% NaN₃, 1% BSA) and centrifuged at 600 g for 30 sec at room temperature. Cells were resuspended in 1 ml PBS (0.2% NaN₃, 1% BSA) containing 100 nM of equivalent unlabeled binding agent. The dissociation reaction was incubated for the indicated times (15, 30, 60, 120, 180 and 240 min) at room temperature while continuously stirring in the dark. Dissociation was stopped by placing the cell pellets on ice. Each sample was washed once with 1 ml cold PBS.

B1: DARPin 929 (designed binder)
chain: MRGSHHHHHHGSDLGKKLLEAARAGQDDEVRILMANGADVNAHDFYGITPLHLAANFGHLEIVEVLLKHGADVNAFDYDNTPLHLAADAGHLEIVEVLLKYGADVNASDRDGHTPLHLAAREGHLEIVEVLLKNGADVNAQDKFGKTAFDISIDNGNEDLAEILQKLN
Kd [1]: 1 nM | Kd [2]: 3.8 nM | koff [2]: 0.0008 s⁻¹ | kon [2]: 200000 M⁻¹ s⁻¹ | Kd [3]: 33.5 nM | koff [3]: 0.00221 s⁻¹ | kon [3]: 69000 M⁻¹ s⁻¹

B2: 9_26-(G4S)4-G3 (designed binder)
chain: MRGSHHHHHHGSDLGKKLLEAARAGQDDEVRILMANGADVNAKDFYGITPLHLAAAYGHLEIVEVLLKHGADVNAHDWNGWTPLHLAAKYGHLEIVEVLLKHGADVNAIDNAGKTPLHLAAAHGHLEIVEVLLKYGADVNAQDKFGKTAFDISIDNGNEDLAEILQKLGGGGSGGGGSGGGGSGGGGSRSDLGKKLLEAARAGQDDEVRILMANGADVNAKDEYGLTPLYLATAHGHLEIVEVLLKNGADVNAVDAIGFTPLHLAAFIGHLEIAEVLLKHGADVNAQDKFGKTAFDISIGNGNEDLAEILQKLN
notes: also called 6_20_G
off-rate, times lower than monovalent G3 [4]: 10 fold

B3: 9_29-(G4S)4-G3 (designed binder)
chain: MRGSHHHHHHGSDLGKKLLEAARAGQDDEVRILMANGADVNAHDFYGITPLHLAANFGHLEIVEVLLKHGADVNAFDYDNTPLHLAADAGHLEIVEVLLKYGADVNASDRDGHTPLHLAAREGHLEIVEVLLKNGADVNAQDKFGKTAFDISIDNGNEDLAEILQKLGGGGSGGGGSGGGGSGGGGSRSDLGKKLLEAARAGQDDEVRILMANGADVNAKDEYGLTPLYLATAHGHLEIVEVLLKNGADVNAVDAIGFTPLHLAAFIGHLEIAEVLLKHGADVNAQDKFGKTAFDISIGNGNEDLAEILQKLN
notes: also called 9_20_G
off-rate, times lower than monovalent G3 [4]: 10 fold
